{"source": "the nanobody polyreactivity screen of Harvey et al. (2022)"}
{"assay": "yeast display, Sf9 membrane polyspecificity reagent, FACS + sequencing; frameworks hold sequencing errors", "method_in_brief": "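A nanobody's polyreactivity label depends on the gate it was sorted from. Yeast display cells were stained with 10% biotinylated, detergent-solubilized Sf9 membrane reagent for 1 hour at 4 °C, enriched on streptavidin microbeads and sorted by FACS. The low and high (top ~1%) gates were set on anti-HA fluorescence for expression and streptavidin fluorescence for reagent binding.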"}
{"sequence": "QVQLVESGGGIVQAGGSLRLSCAASGLNFGLYAMGWDRQAPGNERELVAAITWSGVSTSYADSVKGRFTISRDNAKNTVYLQMNSLKPEDTAVYYCNKDPGTLYGDMDSWGQGTQVTVSS", "polyreactivity (PSR sort gate)": "low polyreactivity"}
{"sequence": "QVQLVESGGGIVQAGGSLRLSCAASGLSRGVNVMGLYRQAPGKERELVAAISGAGRTYYADSVKGRFTISRDNAKNTVFLQMNSLKPEDTAVYYCASVRRRLSLTYDYWGQGTQVTVSS", "polyreactivity (PSR sort gate)": "high polyreactivity"}
{"sequence": "QVQLVESGGGIVQAGGSLRLSCAASGNIFPYYAMRWYRQERGKERELVASISRSGGSTYYADSVKGRFTISRDNAKNTVYLEMNSLKPEDTAVYYCNTLSRSWQMDYWGLGTQVTVSS", "polyreactivity (PSR sort gate)": "low polyreactivity"}
{"sequence": "QVQLVESGGGIVQAGGSLRLSCAASGNIFSYYAMGWYRQAPGKERELVAAITYRSDSTYYADSVKGRFTISRDNAKNTVYLQMNSLKPEDTAVYYCATEPWYGWGFGYWGQGTQVTVSS", "polyreactivity (PSR sort gate)": "low polyreactivity"}
{"sequence": "QVQLVESGGGIVQAGGSLRLSCAASGNTFHYYVMGWYRQAPGKERELVAAITYTGGSTYYADSVKGRFTISRDNAKNTVYLQMISLKPEDTAVYYCAAGFSPASQLDYWGQGTQVTVSS", "polyreactivity (PSR sort gate)": "low polyreactivity"}
{"sequence": "QVQLVESGGGIVQAGGSLRLSCAASGRHFYTNAMGWYRQAPGKERELVATISGSVGNTYYEDSVKGRFTISRDNAKNTVYLQMNSLKPEDTAVYYCAKAYYTPYGVYVLHYYWGQGTQVTVSS", "polyreactivity (PSR sort gate)": "high polyreactivity"}
{"sequence": "QVQLVESGGGIVQAGGSLRLSCAASGRIFKWNAMGWYRQAPGKERELVAAISTSRGNTYYADSVKGRFTSSRDYAKNTVYLLMNSLKPEDTAGYYCAATYPISLRQVGYWGQATQVTVSS", "polyreactivity (PSR sort gate)": "high polyreactivity"}
{"sequence": "QVQLVESGGGIVQAGGSLRLSCAASGRIFLSYAMGWYRQAPGKERELVAAISRNGGSTYYADSVKGRFTISRDNGKNTVYLPMNSLKPEDTAVYYCAAGGDYWGQGTQVTVSS", "polyreactivity (PSR sort gate)": "high polyreactivity"}
{"sequence": "QVQLVESGGGIVQAGGSLRLSCAASGRIFSFNTMVSYRQAPRKERELVAAITSSSARTYYADSVKGRFTISRDNAKNTVYLQMNSLKPEDTAVYYCATRDWVGSVRMGYWGQGTQVTVSS", "polyreactivity (PSR sort gate)": "high polyreactivity"}
{"sequence": "QVQLVESGGGIVQAGGSLRLSCAASGRIFSGNGMGWYRQAPGKEREFVAAIRFSSGSTYYADSVKGRFTISRDNAKNTVYLQMNSLKPEDTAVYYCARPSIPSRYDYWGQGTQVTVSS", "polyreactivity (PSR sort gate)": "high polyreactivity"}
{"sequence": "QVQLVESGGGIVQAGGSLRLSCAASGRIFVRYAMGWYRQAPGKERELVAAISKSGGSTYYADSVKGRFTISRENAKNTVYLQMYSLKPEDTAVYYCNALVRRRPGYIRYDYWGQGTQVTVSS", "polyreactivity (PSR sort gate)": "low polyreactivity"}
{"sequence": "QVQLVESGGGIVQAGGSLRLSCAASGRIFYRYDMGWYSQARGKERELVAAINDGGSTYYADSVKGRFTISRDNAKNTVYLQMNSLKPEDTAVYYCKVVNEHQSDFVVPFDYNHWGQGTQVTVSS", "polyreactivity (PSR sort gate)": "low polyreactivity"}
{"sequence": "QVQLVESGGGIVQAGGSLRLSCAASGRIFYSYAMGWYRQAPGKERELVATISSGGSTNYADSVKGRFTISRDNAKNTVYLQMNSLKPEDTAVYYCGRQSLRYSYVSRDYWGQGSQVTVSS", "polyreactivity (PSR sort gate)": "low polyreactivity"}
{"sequence": "QVQLVESGGGIVQAGGSLRLSCAASGRIIRYYAMGWYRQAPGKERELVAAITRGGSTNYADSVKGRFTISRDNAKNTVYLLMNSLKPEDTAVYYCATRQSWYPRWMDYWGQGTQVTVSS", "polyreactivity (PSR sort gate)": "high polyreactivity"}
{"sequence": "QVQLVESGGGIVQAGGSLRLSCAASGRIIVNYAMGWYRQAPGKERELVAAISYSGGGTYYADSVKGRFTISRDNAKNTVYLHMNSLKPEDTAVYYCATVRRDDRYNYWGQGNQVTVSS", "polyreactivity (PSR sort gate)": "low polyreactivity"}
{"sequence": "QVQLVESGGGIVQAGGSLRLSCAASGRTFAGNAMGWYRQAPGKERELVAAISQGGGSTYYADSVKGRFTISRDNAKNTVYLQMNSLKPEDTAVYYCAAEIPRRWASFATLWYDYWGQGTQVTVSS", "polyreactivity (PSR sort gate)": "low polyreactivity"}
{"sequence": "QVQLVESGGGIVQAGGSLRLSCAASGRTFKRYAMGWYRPAPGKERELVAAITRSGGSTYYADSVKGRFTISRDNAKNTVYLQMNSLKPEDTAVYYCATRSYNNELEYWGQGTQVTVSS", "polyreactivity (PSR sort gate)": "high polyreactivity"}
{"sequence": "QVQLVESGGGIVQAGGSLRLSCAASGRTFKYYAMGWYRQAPGKERELVAAITSTGGSTYYADSVKGRFTISRDNAKNTVYLQMNSLKPEDTAVYYCNRYTQYRDRSDNHWGQGTQVTVSS", "polyreactivity (PSR sort gate)": "high polyreactivity"}
{"sequence": "QVQLVESGGGIVQAGGSLRLSCAASGRTFQFYAMGWYRQEPGKERELVASITWSPVRTYYADSVKGRFTNSRDNAKNTVYLQMNSLKQEDTAVYSCAIDWDYRLMDYWGQGTQVTVSS", "polyreactivity (PSR sort gate)": "low polyreactivity"}
{"sequence": "QVQLVESGGGIVQAGGSLRLSCAASGRTFRGNAMGWYRQAPGKERELVAAIRYRGGSTYYADSVKGRFTISRDNAKNTVYLQMNSLKPEDTAVYDCARRYTVHTQHYDYWGQGTEVTVSS", "polyreactivity (PSR sort gate)": "high polyreactivity"}
{"sequence": "QVQLVESGGGIVQAGGSLRLSCAASGRTFRWNVMGCYRPAPGKERELVATISRRSGSTNYADSVKGRFTISRDNAKNTVYLQINSLKPEDTALYYCAVVIVRALVYSGDYWGQGTQVSVSS", "polyreactivity (PSR sort gate)": "low polyreactivity"}
{"sequence": "QVQLVESGGGIVQAGGSLRLSCAASGRTLPEYAMGWYIQEPGKERELVAAITSSSGSTYYADSVKVRFTISRDNAKNTVYLQMNSLIPEDTAVYYCAAESESGYHDYDYWGQGTQVTVSS", "polyreactivity (PSR sort gate)": "low polyreactivity"}
{"sequence": "QVQLVESGGGIVQAGGSLRLSCAASGRTYYYYAMGWYRQAPGKETELVASISWSGGSTYYADSVKGRFTISRDNAKNTVYLQMNSLKPEDTAVYYCNAQYHTYRWLYAVYLSGDYWGQGTQVTVSS", "polyreactivity (PSR sort gate)": "low polyreactivity"}
{"sequence": "QVQLVESGGGIVQAGGSLRLSCAASGRVFTYYAMGWYRQAPGKERELVAAISSGGNTYYADSVKGRFTISRDNAKNTVFLQMNSLKPEDTAVYYCAAAGRPRYESNYWGQGTQVSVSS", "polyreactivity (PSR sort gate)": "high polyreactivity"}
{"sequence": "QVQLVESGGGIVQAGGSLRLSCAASGSIFEPNAMGWYRQAPGQEREFVAAISGSGGSTYYADSVKGRFTSSRDNAKNTVYLQRNSLKPEDTAVYYCNALYLRTTPQDYDYWGQGTQVTVSS", "polyreactivity (PSR sort gate)": "high polyreactivity"}
{"sequence": "QVQLVESGGGIVQAGGSLRLSCAASGSIFGANAMVWYRQAPGKERELVAAISRRGGSTYYADSVKGRFTISRDNAKNTVYLQMNSLKPEDSAVYYCNTYPQSLGVKYGYWGQGTQVTVSS", "polyreactivity (PSR sort gate)": "high polyreactivity"}
{"sequence": "QVQLVESGGGIVQAGGSLRLSCAASGSIFGVYAMGWYRQAPGKERELVAAISSSGGRTYYADSVKGRFTISRDNAKNTVYLQMISLKPEDTAVYYCAAVPWRRSTRYDYWGQGTLVTVSS", "polyreactivity (PSR sort gate)": "high polyreactivity"}
{"sequence": "QVQLVESGGGIVQAGGSLRLSCAASGSIFSKYAMGWYRQAPGKERELVATISSSVGSTYYADSVKGRFTISRDNAKNTVYLQMNSLKPEDTAVYYCAARPDYEYGSHYRGGYWGQGTQVSVSS", "polyreactivity (PSR sort gate)": "low polyreactivity"}
{"sequence": "QVQLVESGGGIVQAGGSLRLSCAASGSIFSYNAMVWSRQAPGKQREFVAAIDGSDGSTYYADSVKGRFTISRDNAKNTVYLQMYSLKPEDTAVYSCAATDYDTYRSSWYDYWGQGTQVTVSS", "polyreactivity (PSR sort gate)": "low polyreactivity"}
{"sequence": "QVQLVESGGGIVQAGGSLRLSCAASGSIFTGYAMGWYRQAPGKERQLVAAISWRGGGTYYADSVKGRFTISRDNAKNTVYLQMNSLKPEDTAVYYCAAVTKFGQYAPGSKGYGYWGQGTQVTVSS", "polyreactivity (PSR sort gate)": "low polyreactivity"}
{"sequence": "QVQLVESGGGIVQAGGSLRLSCAASGSIFWVNVMGWYRQAPGKEREFVAAITRSGGSTYYADSVKGRFTISRDNAKNTVYLQMKSLKPEDTAVYYCNRRGRRGYDYWGQGTQVTVSS", "polyreactivity (PSR sort gate)": "high polyreactivity"}
{"sequence": "QVQLVESGGGIVQAGGSLRLSCAASGSIFYHNAMGWYRQAPGKERELVAAITGSGGSTYYADSVKGRFTISRDNAKNTVYLQMNSLKPEDTAVYYCAADGYTKWWISWGYDYWGQGTQVTVSS", "polyreactivity (PSR sort gate)": "low polyreactivity"}
{"sequence": "QVQLVESGGGIVQAGGSLRLSCAASGSSFWRNTMGWYRQAPGKERELVAGISSTGTSTYYADSVKGRFTISRDNAKNTVYLQMNSLKPEDTAVYYCAAAYRNRKYDYWGQGTQVTVSS", "polyreactivity (PSR sort gate)": "high polyreactivity"}
{"sequence": "QVQLVESGGGIVQAGGSLRLSCAASGSTFFSNTMGWYRQAPGKERELVAAITSRGGRTYYADSVKGRFTISRDNAKNTVYLQMNSLKPEDSAVYYCADRFVLHGVYLKFYWGQGTQVTVSS", "polyreactivity (PSR sort gate)": "high polyreactivity"}
{"sequence": "QVQLVESGGGIVQAGGSLRLSCAASGSTFGAYPMAWYRQAPGTERELVAVITRTGSTYADSVKGRFTISRDNAKNTVYLQMNSLKPVDTAVYYCNADYYVSRLYDYQVYSYRYDYWGQGTKVTVSS", "polyreactivity (PSR sort gate)": "high polyreactivity"}
{"sequence": "QVQLVESGGGIVQAGGSLRLSCAASGSTFGWYAMGWYRPAPGKERELVAAISTSGNTYYADSVKGRFTISRDNAKNTVYLQLNSLKPEDTAVYYCAKYVNPDHDYWGQGTQVTVSS", "polyreactivity (PSR sort gate)": "low polyreactivity"}
{"sequence": "QVQLVESGGGIVQAGGSLRLSCAASGSTFSYNAMGWYRQAPGKERELVAAISRGGITNYADSVKGRFTISRDNAKNTVYLQMNSLKPEDTAVYYCNAGYLGGPSYEYWGQGTQVTVSS", "polyreactivity (PSR sort gate)": "low polyreactivity"}
{"sequence": "QVQLVESGGGIVQAGGSLRLSCAASGSTFVGNAMGWSRQAPGKERELVAAISRTGGSTYYADSVKGRFTISRDNEKNTVYLQMNSLIPEDSAVYYCNAYTRYSSRRGIGDSWGQGTQVTVSS", "polyreactivity (PSR sort gate)": "high polyreactivity"}
{"sequence": "QVQLVESGGGIVQAGGSLRLSCAASGSTFVIYTMGWYRPAPGKERELVAAISWSGGITRYADSVKGRFTISRDNAKNTVYLQMNSLKPEDSAVYYCNASQWPSRFDYWGQGTQVTVSS", "polyreactivity (PSR sort gate)": "low polyreactivity"}
{"sequence": "QVQLVESGGGIVQAGGSLRLSCAASGSTFYSYAMGFYRQAPGKERELVAAISWDGGRTYYADSVKGRFTISRDNAKNTVYLQMNSLKPEDTAVYYCAAAYPTYRHYYWGQGTQVTVSS", "polyreactivity (PSR sort gate)": "low polyreactivity"}
{"sequence": "QVQLVESGGGIVQAGGSLRLSCAASGSTIDHYTMGWYSQAPGKERELVAAINRIGDSTYYADSVKGRFTISRDNAKNTVYLQMYSVNPEDTAVYYCAARHVPRFKNYGYWGQGTQVTVSS", "polyreactivity (PSR sort gate)": "high polyreactivity"}
